Measurements taken from the DeepSol protein solubility set.

Experiment: soluble on expression in E. coli; label from the status in PepcDB or PDB records

Row | Sequence | soluble on expression in E. coli
1 | AHHHHHHGSRGILDDIDKKIIEILQKDGKVPLREISKITGLAESTIHERIKRLRESGVIKKFTAVVNPEALGYNILAFILIKVKAGKYSEVASKLVKYPEIVEVYETTGDYDMVVKIRTKNSEELNNFLDMVGSIEGVEGTHTMIVLKVHKETTELPVK | soluble
2 | AHHHHHHGSRIVLAYSGGLDTSVILKLMQEKLGAEVITVTVDVGQKDDFEKIEEKAYKFGAVKHYYIDAKEEFAENYVCKAIKANALYENAYPLSTALARPLIVEKLVEVAKKEGAGIIAHGCTGKGNDQVRFNLGIKALMPEAEILQPVAEWNLTRDWEMEYAKKHGIPVSDKIYSIDENIWGRSIEGGVLEDPSIEPPEEVFEWTVSIEKAPDKPEYVTIGFENGVPVSLNGEKMKLLELILKLNEIAGKHGVGRIDHIEDRSVGIKSREVYEAPAAVTLIKAHQDLEKLTLTKWVIEFKSIVDSKWSWLVYNGLWYEPLRLALEGFIDEAEKAVNGEVTVKLWKGNAIVVGRKSDNALYDVKMATYEKFSTFDQKLAKGFIELFGMQSVLAYNMLHGVHSTSNISEIKEAIKTLE | soluble
3 | AHHHHHHGSTIKAPTLNVPGLGVDPLTQRIKEKEKKWKYKIAVLSGKGGVGKSTVAVNLTAALAKMGYFVGILDADIHGPNVAKMFGIGNTDIYAEKFEDGHFEMIPPTVDFMGQVTPIKVMSMGMMVPEDQPIIWRGSLVTKAIKQLLGDVMWGELDFMIIDFPPGTGDEILTVVQSIQLDAAIVVTTPQEVALLDTGKAVNMMKKMEVPYIAVIENMSYLICPHCGNKIDIFGEGGGEKLAEKEGVDFLGKVPIDLKAREASDLGIPIVLYGDTPAAKAFMEIAEKLVNKLKEIKGDGREK | not soluble
4 | AIAAELGLNEHHQNEVINYMRFARSKRGLRLKTVDSCFQDLKESRLVEDTFTIDEVSEVLNGLQAVVHSEVESELINTAYTNVLLLRQLFAQAEKWYLKLQTDISELENQELLEQVAEFEKAEITSSNKKPILDVTKPKLAPLNEGGTAELLNEEILRLQEENEKLKSRLKTIEIQATNALDEKSKLEKALQDLQLDQGNQKDFIKAQDLSNLENTVAALKSEFQKTLNDKTENQKSLEENLATAKHDLLRVREQLHMAEKELEKKFQQTAAYRNMKEILTKKNDQIKDLRKRLAQYEPED | soluble
5 | AIAGSLGIVTNDPSPYSVHFHLTGFGRFHRVSQNPTEFLVKQFVSFCEERRGLHEAARVVTTTVATTSVKGAQQALDEVYGKLHRDKSVRNVIIHCGVDASANCFRLEERAYNEASFSCPDESGWQPKVVPIDDTKPVDSFLVTSINIRQAVEELEKKGFHVKSSEDAGRFLCNWIYYQSLTRAQCEFSVKVVFVHFPPIQDSQEIQSYCEFLLQLLNVITTHELSSIDE | soluble
6 | AIAPAKERFFGFHPCKLVEQVEDCVRDLLEDALDGLETSLFRECALAFDALQENAVTSEHEHAKRLLLQQGLMRLRDALFTAFYDQMDRLQVYLLRNVFHIPPGLRIPNVNTSEDLVENWEQALGIDPSSVQIDANAEDEHAVDQELVALRQSLRVARQRLQRLCRERSVLEGAFHRLEGALQSRLASTLIPTEPEDPSGDCDALAKQVVTIARAVSELEAVVRSCRDQFLGDRSSAASGGAPPSGTVPAAAGGSDVGAQGALVRPPLELERIFDAHTKATRVDSLDAVDALRRALHRSC | soluble
7 | AIAPRNNKTSLIQKIASQAYATFTNCSSSAIEDNNKVFLEHQADLVALLSDIRAADLKIAPPTKVSTSSPSVPPVTYMHICETDVFSMGVFLLKSGASIPLHDHPGMHGMLKVLYGKVSIRCYDKLDKAESDTERHFDPPLLAFQGDDVRRAALRSSGQFSELSGPCVLSPFKDNLHEIDAVDGAAAFLDILAPPYDPDDGRDCHYYRVLQTAGKKSEQSGDDEAWLLEIPQPDDFWCGGEPYPGPEVTI | soluble
8 | AIARPSSLRQYLDSVPLPPCQEQQPKASAELDHKACYLCHSLLMLAGVVVSCQDITPDQWGELQLLCMQLDRHISTQIRESPQAMHRTMLKDLATQTYIRWQELLTHCQPQAQYFSPWKDI | soluble
9 | AIATLLDWMNVCSVEIPKRIIAKHFSACQHTNQEVFSLDDSLAGLDECLHCEDSQQNHRKVSPGQTLRIVMIGKTGVGKSAVGNTILNREVFESKPSANSITQSCRKASVYDTREIYVIDTPGILDTSKEKDIIKREIVKCIKVSAPGPHAFLLVIQIGRFTAEEQRAVQALQELFGEDASNYMIVLFTHGDLLKGQTIDQYVREGHIELRRVIQSCGGRYAVFNNTMKDRTQVKTLIDKIDQMVAVNGGECYTQEMFREAEEKIRQQKEKREIAELQEYQFSFLGILENRVTLFQRILLEGYREQFAIESGIYK | soluble
10 | AIATNDANHLESNCVEEQVQQSLREPWWWLRWRDTPRQQLRGTLFVYTATCPDEKIQRERGFAADHEQVYAFVSFGPEVETDPREHVVEIVKALTSMRSFVETLERTLFEDEDSEPAARTYTHDEPCSVAHHSADADQQFLVETVRHDRIAAAYSSMSQEMHTAPEGARPDCFSKGTSQDHETDTSQPILRKKDETDTWVVALGPDHLVASHTLAACGCALFLGLEWDFRACRSRSDDDFRIMELFQEDLKSRVTWLAPRLGLQHKHACSAQCKDQARNRDSSWDVLLREWLPQAIPGGPRHPQAM | soluble
11 | AIGRYTPADSTQELRDAARRLLPSSSLDKDLERLLRTWHKGYSTKTKRGERPCINSDTGPYTSDSVYIRRLSALPSAVPIQFNPAVKQCIKLYTEERRRLVRYMLSLADLYFPQIEETLDRHNLPIELKYLTIV | not soluble
12 | AKDDKVTVLSIERGNKLVYLEKLGLRGDQFYYKIERIRESNGVVYIYHTSYIPEQYINANYPNLEYYSSIYNRFKLDYHIHMNDEHFEEINEIVFPTPEHAASVLGVDEQFPTVLQTKITKLESTGQVLEYSETYKRSDYYK | soluble
13 | AKEDNIEMQGTVLETLPNTMFRVELENGHVVTAHISGKMRKNYIRILTGDKVTVELTPYDLSKGRIVFRSR | soluble
14 | AKITKVQVGEALVGDGNEVAHIDLIIGPRGSPAETAFCNGLVNNKHGFTSLLAVIAPNLPCKPNTLMFNKVTINDARQAVQMFGPAQHGVAMAVQDAVAEGIIPADEADDLYVLVGVFIHWEAADDAKIQKYNYEATKLSIQRAVNGEPKASVVTEQRKSATHPFAANA | soluble
15 | AKQAAQSTFNSFHEWAKQAEAMRNPSRMDIYKIYKQDAPHSHPMSDEQQEEFLHTLKALNGKNGIEVRTQDHDSVRNKKDRNLDKYIAESPDAKRFFYRIIPKHERREDKNQGRLTIGVQPQYATQLTRAMATLIGKESAITHGKVIGPACHGQMTDSAVLYINGDVAKAEKLGEKLKQMSGIPLDAFVEHTPLSMQSLSKGLSYAESILGDTRGHGMSRAEVISDALRMDGMPFLARLKLSLSANG | not soluble
16 | AKVIFVLAMDVSGKIASSVESWSSFEDRKNFRKITTEIGNVVMGRITFEEIGRPLPERLNVVLTRRPKTSNNPSLVFFNGSPADVVKFLEGKGYERVAVIGGKTVFTEFLREKLVDELFVTVEPYVFGKGIPFFDEFEGYFPLKLLEMRRLNERGTLFLKYSVEKSHR | soluble
17 | ALAETVSDFRLPNGLEVVVIEDHRAPVVTHMVWYRVGAADEPPGHSGIAHFLEHLMFKGTDEMSAGEFSATVEAQGGDDNAFTSWDYTAYFQRVAADRLDLMMKMEADRMRDLQMTEEDVRTERQVVLEERSQRTDSDPGAVFSEQSRAAAYLNHPYGIPIIGWRHEIEQLGREDAFSFYRTYYAPNNAILVVAGDVDPAEVRRMAEEHYGALEPTP | not soluble
18 | AMKNWKTSAESILTTGPVVPVIVVKKLEHAVPMAKALVAGGVRVLNVTLRTECAVDAIRAIAKEVPEAIVGAGTVLNPQQLAEVTEAGAQFAISPGLTEPLLKAATEGTIPLIPGISTVSELMLGMDYGLKEFKFFPAEANGGVKALQAIAGPFSQVRFCPTGGISPANYRDYLALKSVLCIGGSWLVPADALEAGDYDRITKLAREAVEGAKL | soluble
19 | AMKNYYSSNPTFYLGIDCIIFGFNEGEISLLLLKRNFEPAMGEWSLMGGFVQKDESVDDAAKRVLAELTGLENVYMEQVGAFGAIDRDPGERVVSIAYYALININEYDRELVQKHNAYWVNINELPALIFDHPEMVDKAREMMKQKASVEPIGFNLLPKLFTLSQLQSLYEAIYGEPMDKRNFRKRVAEMDFIEKTDKIDKLGSKRGAALYKFNGKAYRKDPKFKL | soluble
20 | ANFQYIITEKKGKNSSVGLIQLNRPKALNALCNGLIEELNQALETFEEDPAVGAIVLTGGEKAFAAGADIKEMQNRTFQDCYSGKFLSHWDHITRIKKPVIAAVNGYALGGGCELAMMCDIIYAGEKAQFGQPEILLGTIPGAGGTQRLTRAVGKSLAMEMVLTGDRISAQDAKQAGLVSKIFPVETLVEEAIQCAEKIANNSKIIVAMAKESVNAAFEMTLTEGNKLEKKLFYSTFATDDRREGMSAFVEKRKANFKDH | soluble
21 | ANTAFVSSACNTQKIPSGSPFNRNLRAMLADLRQNTAFSGYDYKTSRAGSGGAPTAYGRATCKQSISQSDCTACLSNLVNRIFSICNNAIGARVQLVDCFIQYEQRSF | soluble
22 | APMKLYGAVMSWNLTRCATALEEAGSDYEIVPINFATAEHKSPEHLVRNPFGQVPALQDGDLYLFESRAICKYAARKNKPELLREGNLEEAAMVDVWIEVEANQYTAALNPILFQVLISPMLGGTTDQKVVDENLEKLKKVLEVYEARLTKCKYLAGDFLSLADLNHVSVTLCLFATPYASVLDAYPHVKAWWSGLMERPSVQKVAALMKPSA | soluble
23 | ARNKALKADGAFNGVEKEGLFKAMKHYGYEGLAVLVSERGHYSLKKAADVLGLGQEGLVAVKTDANNRIVVDDLKTKIAELKEQNIKPIAVIGVAGTTETGSVDPLSQIAQVCQEHNCHFHVDAAWGGATLMSNHYRHLLEGVELADSVTIDAHKQLYIPMGAGMVLFKDPDAMKSIEHHAQYILRKGSKDLGSHTLEGSRSGMAMLVYAAMHIISRPGYELLIDQSIEKARYFADLIKQQDDFELVSEPELCLLTYRYLPPLIREALDKAEGTQKEKLNELINQLTQFIQKRQRETGKSFVSRTRLNPDQWQRMNTIVFRVVLANPLTTRDILSSVLDEQREIAKQAPSLTAKIEEMASDILGA | not soluble
24 | ARPAFVNKLWSMVNDKSNEKFIHWSTSGESIVVPNRERFVQEVLPKYFKHSNFASFVRQLNMYGWHKVQDVKSGSMLSNNDSRWEFENERHA | soluble
25 | ASGSDENDVVIIGGGPGGYVAAIKAAQLGFKTTCIEKRGALGGTCLNVGCIPSKALLHSSHMYHEAKHSFANHGVKVSNVEIDLAAMMGQKDKAVSNLTRGIEGLFKKNKVTYVKGYGKFVSPSEISVDTIEGENTVVKGKHIIIATGSDVKSLPGVTIDEKKIVSSTGALALSEIPKKLVVIGAGYIGLEMGSVWGRIGSEVTVVEFASEIVPTMDAEIRKQFQRSLEKQGMKFKLKTKVVGVDTSGDGVKLTVEPSAGGEQTIIEADVVLVSAGRTPFTSGLNLDKIGVETDKLGRILVNERFSTNVSGVYAIGDVIPGPMLAHKAEEDGVACVEYLAGKVGHVDYDKVPGVVYTNPEVASVGKTEEQVKETGVEYRVGKFPFMANSRAKAIDNAEGLVKIIAEKETDKILGVHIMAPNAGELIHEAAIALQYDASSEDIARVCHAHPTMSEAIKEAAMATYDKPIHI | soluble
26 | ASNFTQFVLVDNGGTGDVTVAPSNFANGVAEWISSNSRSQAYKVTCSVRQSSAQNRKYTIKVEVPKVATQTVGGVELPVAAWRSYLNMELTIPIFATNSDCELIVKAMQGLLKDGNPIPSAIAANSGIYANFTQFVLVDNGGTGDVTVAPSNFANGVAEWISSNSRSQAYKVTCSVRQSSAQNRKYTIKVEVPKVATQTVGGVELPVAAWRSYLNMELTIPIFATNSDCELIVKAMQGLLKDGNPIPSAIAANSGIY | soluble
